Data: patent US20090196872A1

B1: human anti-M2 monoclonal antibody L66 (antibody)
chain 1: EVQLVESGGGVVRPGGSLRLSCAASGFTFDDYGMSWVRQAPGKGLEWVSGINWNGGSTGYADSVKGRFTISRDNAKNSLYLQMNSLRAEDTALYYCARDRVTMVRGVIMDYYGMDVWGQGTTVTVSS
chain 2: QTVVTQEPSLTVSPRGTVTLTCSSSTGAVTSGYYPGWFQLKPGQAPMSLIYSARKKHSWTPARFSGSLLGGKAALTLSGVQPEDEAEYYCLLYYGGAYVFGTGTKVTVLG
B2: human anti-M2 monoclonal antibody C40G1 (antibody)
chain 1: QLQLQESGPGLVKPSETLSLTCTVSGGSISSSFYYCGWIRQPPGKGLEWIGSIYYRGSTYYNPSLKSRVTISVDTSKNQFSLKLSSVTAADTAVYYCARRVTMVRGVKGDYFDYWGQGTLVTVSS
chain 2: DIQMTQSPSSLSASVGDRVTITCRASQGISSWLAWYQQKPEKVPKSLIYAASSLQSGVPSRFSGSGSGTDFTLTISSLQPEDFATYYCQQYNYYPLTFGGGTKVEIKR

Tests used:
[1] = target: M2 truncated peptide NN15 (influenza A virus); assay: peptide ELISA, antibody at 10 ug/ml
[2] = target: M2 truncated peptide NM13 (influenza A virus); assay: peptide ELISA, antibody at 10 ug/ml
[3] = target: M2 truncated peptide M12 (influenza A virus); assay: peptide ELISA, antibody at 10 ug/ml
[4] = target: M2 truncated peptide NM8 (influenza A virus); assay: peptide ELISA, antibody at 10 ug/ml
[5] = target: M2 truncated peptide CM16 (influenza A virus); assay: peptide ELISA, antibody at 10 ug/ml
[6] = target: M2 truncated peptide NM10 (influenza A virus); assay: peptide ELISA, antibody at 10 ug/ml
[7] = target: M2 truncated peptide NM12 (N-terminal 12-amino acid peptide) (influenza A virus); assay: peptide ELISA, antibody at 10 ug/ml
[8] = target: M2 peptide (extracellular 23-amino-acid peptide of influenza virus matrix M2 protein) (influenza A virus); assay: peptide ELISA, antibody at 10 ug/ml
[9] = target: M2 truncated peptide NM11 (influenza A virus); assay: peptide ELISA, antibody at 10 ug/ml
[10] = target: M2 truncated peptide CM14 (influenza A virus); assay: peptide ELISA, antibody at 10 ug/ml
[11] = target: M2 truncated peptide CM13 (influenza A virus); assay: peptide ELISA, antibody at 10 ug/ml
[12] = target: M2 truncated peptide CM15 (influenza A virus); assay: peptide ELISA, antibody at 10 ug/ml
[13] = target: M2 truncated peptide NM17 (influenza A virus); assay: peptide ELISA, antibody at 10 ug/ml
[14] = target: M2 truncated peptide CM12 (influenza A virus); assay: peptide ELISA, antibody at 10 ug/ml
[15] = target: M2 truncated peptide NM14 (influenza A virus); assay: peptide ELISA, antibody at 10 ug/ml
[16] = target: M2 truncated peptide NN9 (influenza A virus); assay: peptide ELISA, antibody at 10 ug/ml
[17] = target: M2 truncated peptide NM7 (influenza A virus); assay: peptide ELISA, antibody at 10 ug/ml
[18] = target: M2 truncated peptide M15 (influenza A virus); assay: peptide ELISA, antibody at 10 ug/ml
[19] = target: M2 truncated peptide NM16 (influenza A virus); assay: peptide ELISA, antibody at 10 ug/ml
[20] = target: M2 truncated peptide CM17 (influenza A virus); assay: peptide ELISA, antibody at 10 ug/ml
[21] = target: M2 truncated peptide M16 (influenza A virus); assay: peptide ELISA, antibody at 10 ug/ml
[22] = target: M2 protein expressed on A/HK/1/68 infected MDCK cells (influenza A virus A/HK/1/68); assay: cell-based ELISA, half-saturating antibody concentration; settings: remark: other sources report otherwise

Row | Binder | ELISA (OD450) [1] | ELISA (OD450) [2] | ELISA (OD450) [3] | ELISA (OD450) [4] | ELISA (OD450) [5] | ELISA (OD450) [6] | ELISA (OD450) [7] | ELISA (OD450) [8] | ELISA (OD450) [9] | ELISA (OD450) [10] | ELISA (OD450) [11] | ELISA (OD450) [12] | ELISA (OD450) [13] | ELISA (OD450) [14] | ELISA (OD450) [15] | ELISA (OD450) [16] | ELISA (OD450) [17] | ELISA (OD450) [18] | ELISA (OD450) [19] | ELISA (OD450) [20] | also measured
1 | B1 | 0.28 OD450 | 0.17 OD450 | 0.19 OD450 | 0.18 OD450 | 0.13 OD450 | 0.16 OD450 | 0.12 OD450 | 1.04 OD450 | 0.17 OD450 | 0.13 OD450 | 0.15 OD450 | 0.13 OD450 | 1.92 OD450 | 0.16 OD450 | 0.16 OD450 | 0.16 OD450 | 0.18 OD450 | 0.2 OD450 | 2.52 OD450 | 0.14 OD450 | ELISA (OD450) [21]: 0.27 OD450; Kd [22]: 0.531 nM
2 | B2 | 2.67 OD450 | 1.82 OD450 | 1.95 OD450 | 0.1 OD450 | 1.41 OD450 | 0.11 OD450 | 0.16 OD450 | 2.38 OD450 | 0.15 OD450 | 0.1 OD450 | 0.11 OD450 | 0.1 OD450 | 2.18 OD450 | 0.11 OD450 | 1.93 OD450 | 0.13 OD450 | 0.09 OD450 | 1.93 OD450 | 2.17 OD450 | 3.01 OD450 | ELISA (OD450) [21]: 1.75 OD450; Kd [22]: 0.542 nM
